Assay results taken from US11472855, “RNA-binding protein” (Panitch Schwarze Belisario & Nadel LLP).

Experiments:
[1] = target: human PUM1 PUF domain wild type (hPUF WT) (UniProt Q14671 SEQ:1-349); assay: EMSA; reference; 4 C, 100 mM NaCl, 1 mM EDTA, pH 7.5; conditions: label: Alexa680 at 5' and 3'
Method: (§1) Each purified protein was diluted to a desired concentration with Binding Buffer, mixed with a binding buffer and Ribonuclease Inhibitor, Cloned (Invitrogen), and then, mixed with the RNA probe at a final concentration of 0.5 nM. […] A binding reaction was performed at 4° C. for 30 min. Subsequently, the solution was gently mixed by pipetting. A binding reaction was performed again at 4° C. for […].
(§2) The solution obtained after the binding reaction was applied to 6% a non-denaturing polyacrylamide gel, followed by electrophoresis at 4° C. and 200 V. When the electrophoresis marker (2 μL of 6×Dye+10 μL of 1×binding buffer) moved by 0.5 cm, the voltage was changed to 100 V, and electrophoresis was continuously performed until the electrophoresis marker moved by 3 cm. Finally, RNA was detected with Odyssey.

[2] = target: T1, hPUF_MT(R2_N12S,Q16R, R3→R5, R4→R6) (R2 repeat N12S,Q16R); assay: EMSA; binds C exclusively; conditions: label: Alexa680 at 5' and 3'
T1 chain: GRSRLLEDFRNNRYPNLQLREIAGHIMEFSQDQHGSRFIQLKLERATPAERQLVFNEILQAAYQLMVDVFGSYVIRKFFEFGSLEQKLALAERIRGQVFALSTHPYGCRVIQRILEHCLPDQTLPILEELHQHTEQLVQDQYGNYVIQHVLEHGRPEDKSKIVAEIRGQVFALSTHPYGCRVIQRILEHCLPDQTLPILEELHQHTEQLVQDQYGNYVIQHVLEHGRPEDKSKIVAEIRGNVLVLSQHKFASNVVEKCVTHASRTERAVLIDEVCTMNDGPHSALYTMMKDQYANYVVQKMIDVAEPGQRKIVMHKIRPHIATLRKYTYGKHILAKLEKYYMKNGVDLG

[3] = target: T2, hPUF_MT(R7_ILQ) (UniProt Q14671 SEQ:1-342); assay: EMSA; comparable to WT; conditions: label: Alexa680 at 5' and 3'
T2 chain: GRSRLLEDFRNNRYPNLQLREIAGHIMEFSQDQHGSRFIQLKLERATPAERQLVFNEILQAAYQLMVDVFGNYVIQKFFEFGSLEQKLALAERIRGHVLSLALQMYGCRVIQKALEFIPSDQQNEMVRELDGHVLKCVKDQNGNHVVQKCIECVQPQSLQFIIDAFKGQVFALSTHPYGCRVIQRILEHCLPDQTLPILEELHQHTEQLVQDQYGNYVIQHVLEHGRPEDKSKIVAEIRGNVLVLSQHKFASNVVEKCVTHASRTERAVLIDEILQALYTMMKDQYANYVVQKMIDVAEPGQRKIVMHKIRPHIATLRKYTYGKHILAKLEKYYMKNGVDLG

[4] = target: T3, hPUF_MT(R7_S12N,E16Q, R3→R5, R4→R6) (R7 repeat S12N,E16Q); assay: EMSA; binds U exclusively; conditions: label: Alexa680 at 5' and 3'
T3 chain: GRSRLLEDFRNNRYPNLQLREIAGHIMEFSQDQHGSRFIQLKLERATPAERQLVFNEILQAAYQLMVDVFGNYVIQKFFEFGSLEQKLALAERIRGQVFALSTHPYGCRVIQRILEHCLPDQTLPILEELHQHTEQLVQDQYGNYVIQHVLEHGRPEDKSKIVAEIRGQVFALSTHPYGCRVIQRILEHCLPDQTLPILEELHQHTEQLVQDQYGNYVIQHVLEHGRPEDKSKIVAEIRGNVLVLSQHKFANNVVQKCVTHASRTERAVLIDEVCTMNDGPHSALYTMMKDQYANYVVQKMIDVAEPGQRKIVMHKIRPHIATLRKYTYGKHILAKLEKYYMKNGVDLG

[5] = target: T4, hPUF_MT(R3→R5, R4→R6); assay: EMSA; binds U (R2 position) >> C; conditions: label: Alexa680 at 5' and 3'
T4 chain: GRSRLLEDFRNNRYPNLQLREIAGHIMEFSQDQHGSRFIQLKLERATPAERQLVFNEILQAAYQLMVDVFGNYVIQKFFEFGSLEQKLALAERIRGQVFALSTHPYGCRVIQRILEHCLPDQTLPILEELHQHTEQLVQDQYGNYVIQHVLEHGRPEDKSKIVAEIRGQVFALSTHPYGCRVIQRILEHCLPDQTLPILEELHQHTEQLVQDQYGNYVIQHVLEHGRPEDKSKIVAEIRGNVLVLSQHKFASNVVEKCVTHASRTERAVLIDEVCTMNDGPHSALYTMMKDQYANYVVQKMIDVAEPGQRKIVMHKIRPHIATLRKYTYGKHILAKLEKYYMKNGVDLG
Method: as §1, §2

[6] = target: hPUF_MT(905A) (UniProt Q14671 SEQ:1-349, F905A); assay: EMSA; not significantly affected; conditions: tags: MBP; label: Alexa680 at 5' and 3'
Method: (§3) An RNA probe (OTS-1511) containing a target sequence fluorescence-labeled with Alexa680 at both ends thereof was synthesized.
as §1

[7] = target: T5, hPUF_MT(R3→R5) (UniProt Q14671 SEQ:1-349); assay: EMSA; comparable to WT; conditions: label: Alexa680 at 5' and 3'
T5 chain: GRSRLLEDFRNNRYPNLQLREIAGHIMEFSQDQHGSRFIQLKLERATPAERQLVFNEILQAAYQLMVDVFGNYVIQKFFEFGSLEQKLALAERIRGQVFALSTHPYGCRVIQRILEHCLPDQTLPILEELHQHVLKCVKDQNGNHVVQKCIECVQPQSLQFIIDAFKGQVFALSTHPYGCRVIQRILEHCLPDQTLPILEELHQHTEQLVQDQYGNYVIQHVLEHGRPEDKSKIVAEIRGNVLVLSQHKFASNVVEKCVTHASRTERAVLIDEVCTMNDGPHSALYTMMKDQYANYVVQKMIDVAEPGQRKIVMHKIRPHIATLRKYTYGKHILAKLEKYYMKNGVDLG
Method: as §3, §1

[8] = target: T6, hPUF_MT(R4→R6) (UniProt Q14671 SEQ:1-349); assay: EMSA; comparable to WT; conditions: label: Alexa680 at 5' and 3'
T6 chain: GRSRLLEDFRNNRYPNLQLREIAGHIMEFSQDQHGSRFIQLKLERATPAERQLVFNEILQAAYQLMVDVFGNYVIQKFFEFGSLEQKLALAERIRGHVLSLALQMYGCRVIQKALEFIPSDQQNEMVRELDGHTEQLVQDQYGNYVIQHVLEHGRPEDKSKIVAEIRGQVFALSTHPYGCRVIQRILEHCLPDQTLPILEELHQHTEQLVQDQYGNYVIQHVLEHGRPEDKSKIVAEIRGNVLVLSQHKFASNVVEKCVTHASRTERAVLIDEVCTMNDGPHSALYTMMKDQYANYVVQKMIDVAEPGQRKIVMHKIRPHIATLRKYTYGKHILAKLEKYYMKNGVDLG
Method: as §3, §1

**Q.** Which results are given for CCAGAAUUGUAUAUAUUCG (ssRNA) [OTS-1511]?
**A.** binding result [1]: binds; binding result [2]: no binding; binding result [3]: binds; binding result [4]: no binding; binding result [5]: binds; binding result [6]: binds; binding result [7]: binds; binding result [8]: binds
